Source: a protein production outcome set (Wang et al. 2014)

Test: label from the status in PepcDB records

With “MSILKVIKQKWVALGALLGSGALVGLSTNLAKVAYGQDLAPFPFLTWSLAGATLILGSISFLTKQTPPTNTGAIKYYFIAGFFSVAGSNLILFSAVSHVGVSFVVLVISLTPIFTYIAALALGMEIFSRWRVASVIFSLAGTALLVTAKLSLPETNHLWILITLIGPVLLASGNIYRTSHWPKGAKPESLAPGMLLAATATLVLAAISIQGVSLFALFNTENIGLIVLQSIIFSGQFLLLFVLQKAGGPVFLSLTGAVSAAFGIPFAMALLDEPMLPALAPSALLIVTGIIFMMKEQAISNA” the protein production was “failed”.
With “MLHIDDAMIEDAVTPQAAQEVLHAAFLDFGRGSAAMQRRVRTEAGGVKLSTLGAVIPGQGVAGAKVYTTIKGQFQFVILLFSAADGRPLATCDAGTLTRKRTAACTVLAAGALARLRSSVLGLFGAGTQGVEHAAQLSARFALEAILVHDPHASPEVVERIGRRCGVPARMAAPADIAAQADIVVTATRSATPLFAGQALRAGAFVGAIGSSLPHTRELDDEVLRRARAVVVEWREQTLSEAGDLVLAAPDTGLDAKVVELADVLAGRATARQADEDIVIYKSVGVGLEDVALAGYAYRRLAAQRGWPAP” the protein production was “failed”.
With “CASRQEHSLRIIHTTDLHGNVFPTDFKALRPTSGGMSRLASFLKAARSDRSELLLFDGGDVLQGDPTAYYYNYMDTTGTHLFSRAMNYLRYDAAIPGNHDIETGHAVYDKWVAGCDFPFLAANAIDTETGKPYWAPYKVFDRNGLRVALLGFITPAIPEWLPQSLWTGMRFDDIIESAKYWVPFVIQKEKPDFVVCVLHSGRENDNSNYLEDAGMTLAREVAGIDVLLLGHDHQEYSRRVKGAEADSVLVLNPANHLDKVSDVRLSLARKGDKVLHKRVEGGLTDISRLTPDSAFMAHFSSDEAAVRRFVNE” the protein production was “failed”.
With “MRLDLSAKFRQVLGLAKDHASIGRAIVQNYNEKAFFDIEVAVVRATSHDDCPVDDKTMHEILFLVSNTPGSIPFLAEQISRRLAKTRDCLVAGKTLLLFHRLLRGSSRSIEQQLHIAHTSGHLQIGCSWFMMSLDSRSFVFLQNYVAYLQERVGWIINQAGKLEPVMSGGTKFSRYKEKSMDLVFHILPKCQEFIAQVLKCSPVDAWPIDNLVQAATGNILKESFQVYMTYSDGMTALVSMLFDLSRPARDLACGMLRKASQQIQDLRILYDKCRGFAGMKSLDYPSVQAISMDHIVALEECSSYGGKRGFSLSTNLRDAITCNELKQEQHSASFSSTSPFSLPVETKISMVWVVFDNEDGEESDKQTEKAYER” the protein production was “failed”.
In the case of “MLKLNLKKSFQKDFDKLLLNGFDDSVLNEVILTLRKKEPLDPQFQDHALKGKWKPFRECHIKPDVLLVYLVKDDELILLRLGSHSELF”, the protein production was “failed”.
With “MFPFENQRLPISALIHKKNHSRLQPHPLFEEQPMKILLIGANGTIGSAVARELEQRHEVVRIGRTSGDFQVDISDSQSIRALFEKTGRFDALVCAAGNVTFAPLGEMTAEHFSLGLEDKLMGQVNLLLIGREYANDGASFTFTTGVLSHDPIRSGASAALVNGAIDSFVRAAAIELPRGLRVNSISPNVLLEAMGSYAPYFRGFKPVPAADVALAYAKSVEGLQTGQTYRVG” the protein production was “failed”.
In the case of “MSLKQQFSTKAFQAANLEAYKAQMKEMEESFGALLRQLPSDTEVPGLLEDITRTGLGSGLEFEEIKLLPEVAQQFYIELPIQISVVGGYHDLATFVSGVSSLPRIVTLHDFEIKPVAPGSTSKLRMSILAKTYRYNDKGEGHHHHHH”, the protein production was “not failed”.
